Measurements from the nanobody polyreactivity screen of Harvey et al. (2022).

Experiment: yeast display, Sf9 membrane polyspecificity reagent, FACS + sequencing; frameworks hold sequencing errors
Method in brief: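 A nanobody's polyreactivity label depends on the gate it was sorted from. Yeast display cells were stained with 10% biotinylated, detergent-solubilized Sf9 membrane reagent for 1 hour at 4 °C, enriched on streptavidin microbeads and sorted by FACS. The low and high (top ~1%) gates were set on anti-HA fluorescence for expression and streptavidin fluorescence for reagent binding.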

| Sequence | polyreactivity (PSR sort gate) |
| --- | --- |
| QVQLVESGGGLVQAGGSLRLSCAASGRIFPYYAMGWYRQAPGKERELVATISTAGSTNYADSVKGRFTISRDNAKNTVYLQMNSMKPEDTAVYYCATRNTWYHRGYDFWGLGTQVTVSS | low polyreactivity |
| QVQLVESGGGLVQAGGSLRLSCAASGRIFPYYAMGWYRQAPGKVRELVASIRYSAGNTYYADSVKGRFTISRDNAKNTVYLQMNSLKPEDTAVYYCWYTQNTLGNYWGQGTQVTVSS | low polyreactivity |
| QVQLVESGGGLVQAGGSLRLSCAASGRIFPYYTMGWYRPAPGKERELVAAISRRGSSTYYADSVKGRFTISRDNAKNTVYLQMNSLKPEDTAVYFCAADRGGYTRTGEYDYWGQGTQVTVSS | high polyreactivity |
| QVQLVESGGGLVQAGGSLRLSCAASGRIFQDYAMGWYRQATGKERELVAAITWSGGRTYYADSVKGRFTISRDNAKNTVYLQMNSLKPEDTAVYYCNRLTQSRLYYGPREYYYWGQGTQVTVSS | high polyreactivity |
| QVQLVESGGGLVQAGGSLRLSCAASGRIFQHNTMGWYRQAPGKERELVAAITRGGRTNYADSVKGRFTISRDNAKNTVYLQMNSLKPEDTAVYYCAARYVERHTDYYYWGQGTQVTVSS | low polyreactivity |
| QVQLVESGGGLVQAGGSLRLSCAASGRIFQLYTMGWYIQAPGKERELVAAITSGTSTSYADSVKGRFTISRDNAKNTVYLQMNSLKPEDTAVYYCNKGSVSYSSVFVPYESDYWGQGTQVTVSS | low polyreactivity |
| QVQLVESGGGLVQAGGSLRLSCAASGRIFQPNAMGWYRQAPGKEREFVAAISSSGGYTFYADSVKGRFTISRDNAKNTVYLQMNSLKPEDTAVYYCAKRYGYTEYFYWGQGSQVTVSS | high polyreactivity |
| QVQLVESGGGLVQAGGSLRLSCAASGRIFQQYALGWYRQAPGKEREWVAVITYRAGRTHYADSVKGRFTISRDNAKNTVYLQMNSLKPEDTAVYYCAAGRYYAVWQSISGFDSWGQGTQVTVSS | low polyreactivity |
| QVQLVESGGGLVQAGGSLRLSCAASGRIFQRNTMGWYRQAPGKERELVAAITWNGGSTYYADSVKGRFTISRDNAKNTVFLQMNSMKPEDTAVDYCATAYRYSVHKALGFNYWGQGTQVTVSS | high polyreactivity |
| QVQLVESGGGLVQAGGSLRLSCAASGRIFQRYAMGWYRPAPGKERELVAAISSRGGRTFYADSVKGRFTISRDNAMYSVYLQMNSLKPEDSAAYYCAATATVGSVTFDYWGQGTQVSVSS | high polyreactivity |
| QVQLVESGGGLVQAGGSLRLSCAASGRIFQRYAMGWYRQAPGKERELVAGITSSGGSTYYADSVKGRFTISRDNAKNTVYLQMNSLKPEDTAVYYCNAGGELRYYGYRAGGTTRSYDYWGQGTQVTVSS | low polyreactivity |
| QVQLVESGGGLVQAGGSLRLSCAASGRIFQTNVMGWYRQAPGKEKELVAAISYRGGTTYYEDSVKARFTISRDNAQNTVYLPMYSLYPEDTAVYYCAALHYRIRRTGMDYWGQGTQVTVSS | low polyreactivity |
| QVQLVESGGGLVQAGGSLRLSCAASGRIFQTYAMGWYRQAPGKERDLVASITSGVDTYYADSVKGRFTISRDNAKNTVYLQMNSLKPEDNAVYYCAAEPYRTVTAYRYSLYWYNYWGQGTQVTVSS | high polyreactivity |
| QVQLVESGGGLVQAGGSLRLSCAASGRIFQWYAMGWYRQAPGKERELVAAIRNGGTTNYADSVKGRFTISRDNAKNTVYLQMNSLKPEDTAVYYCNADKYRTWVFQPRYPGGYWGQGTQVTVSS | low polyreactivity |
| QVQLVESGGGLVQAGGSLRLSCAASGRIFQYNAMGWYRQAPGKEREFVAAIRRGGGSTYYADSVKGRFTISRDNAKNTVYLQMNSLKPEDTAVYYCAARRKRVSFYPEYDYWGQGTQVTVSS | low polyreactivity |
| QVQLVESGGGLVQAGGSLRLSCAASGRIFQYNAMGWYRQATGKERELVAAITWSSGSTYYADSVKGRFTISRDNAKNTVYLQMNSLKPEDTAVYYCNTVRVLYYDRQFLFRGSRFGYWGQGTQVTVSS | high polyreactivity |
| QVQLVESGGGLVQAGGSLRLSCAASGRIFQYNVIGWYRQARWKERELVAAISSGGNTYYADSVKGRFTISRDNAKNTVYLQMNSLKPEDTSFYYCAADHYVPWPNYDYDYWGQGTQETVSS | low polyreactivity |
| QVQLVESGGGLVQAGGSLRLSCAASGRIFQYYAMGRYGQAPGKERELVARISSRGGSTYYADSVKGRFTISRDNAKNTVYLQMNSLKPEDTAVYYCNTRWYSSYYQPSYNYWGQGTQVTVSS | high polyreactivity |
| QVQLVESGGGLVQAGGSLRLSCAASGRIFQYYAMGWYRQAPGKERELVAAINSSGGRTYYADSVKGRFTISRDTAKNTVYLQMNSLTPEDTAVNSCNAVLSTRGMDYWGQGTQVTVSS | high polyreactivity |
| QVQLVESGGGLVQAGGSLRLSCAASGRIFRAYTMGWYRQAPGKERELVAAISGSGTSTYYADSVKGRFTISRDNAKNTVYLQMNSLKPEDTAVYYCAAPSLSGYGYEYWGQGTQVTVSS | high polyreactivity |
| QVQLVESGGGLVQAGGSLRLSCAASGRIFRDYDMGWYRQAPGKERELVASISTRGGSTYADSVKGRFTISRDNAKNTVYLQMNSLKPEDTAVYYCAADSSGFSRYDYWGQGSQVTVSS | low polyreactivity |
| QVQLVESGGGLVQAGGSLRLSCAASGRIFRFNAMGWYRQAPGKERELVAAITGSGGTTFYADSVKGRFTISRDNAKNTVYLQMNSLKPEDTAVYYCNTLGNWRPVYNQPRYEYWGQGTQVTVSS | high polyreactivity |

| Sequence | polyreactivity (PSR sort gate) |
| --- | --- |
| QVQLVESGGGLVQAGGSLRLSCAASGRIFRFYAMGWYRQAPGKERELVAAISSRGGSTYDADSVKGRFTISRDNAKNTVYLQMNSLKPEDTAVYYCNAYGSTSQMDYWGQGTQVTVSS | high polyreactivity |
| QVQLVESGGGLVQAGGSLRLSCAASGRIFRFYAMGWYRQAPGKERELVAAISWRGGRTYYADSVKGRFTISRDNAKNTVYVQMNSLKPEDTAVYYCNADKYETSGWKYVSWGQGTQVTVSS | low polyreactivity |
| QVQLVESGGGLVQAGGSLRLSCAASGRIFRFYAMGWYRQAPGKERELVAAITYGGGTTYYADSVKGRFTISRDNAKNTVYLQMNSLKPEDTAVYYCAADHRQGYDHEYDYWGQGTQVTVSS | low polyreactivity |
| QVQLVESGGGLVQAGGSLRLSCAASGRIFRFYAMGWYRQAPGKERELVAGITYSGGSTFYADSVKGRFTISRDNAKNTVYLQMNSLKPEDTAVYYCAAVYVPYYWLGRSRGLDYWGQGTQVTVSS | high polyreactivity |
| QVQLVESGGGLVQAGGSLRLSCAASGRIFRFYAMGWYRQAPRKERELVAAITSGGSTYYADSVKGRFTISRDNAKNTVYLQMNSLKPEDTAVYYCANYYWGQGTQVTVSS | low polyreactivity |
| QVQLVESGGGLVQAGGSLRLSCAASGRIFRGNAMGWSRQAPGKERELVAGISVRGGRTYYADSVKGRFTISRDNAKNTVYLQMNSLKPEDTAVYYCAAVFWDDYGKYYYWGQGTQVTVSS | high polyreactivity |
| QVQLVESGGGLVQAGGSLRLSCAASGRIFRGNAMGWYRQAPGKERELVAAINYSGGSTYYADSVKGRFTISRDNAKNTVYLQMNSLKPEDTAVYYCAAEPGQYGWYYGYGYWGQGTQVTVSS | high polyreactivity |
| QVQLVESGGGLVQAGGSLRLSCAASGRIFRGNTMGWYRQAPGKERELVAAITIRGRTYYADSVKGRFTISRDNAKNTVYLQMNSLKPEDTAVYYCAVASAGDNDYWGQGTQVTVSS | low polyreactivity |
| QVQLVESGGGLVQAGGSLRLSCAASGRIFRGYAMAWYRQAPGKERELVAAISGRGGRTNYADSVKGRFTISRDNAKNTVYLQMNSLKPEDTAVYYCATVPYTASRYEYWGQGTQVTVSS | high polyreactivity |
| QVQLVESGGGLVQAGGSLRLSCAASGRIFRGYAMGWYRQAPGKEREFVAAITKNGGSTYYADSVKGRFTISRDNAKNTVYLQMNSLKPEDTAVYYCNAGTFTRRRGLDYWGQGTQVTVSS | low polyreactivity |
| QVQLVESGGGLVQAGGSLRLSCAASGRIFRGYAMGWYRQAPGKERELVAAIDRVGRTKYADSVKGRFTISRDNAKNTVYLQMNSLKPEDTAVYYCAAKASRVDWGYGYWGQGTQVTVSS | high polyreactivity |
| QVQLVESGGGLVQAGGSLRLSCAASGRIFRGYAMGWYRQAPGKERELVAAISGSGGSTYYADSVKGRFTISRDNAKNTVYLQMNSLKPEDTAVYYCAADQQSTGDWAGDYWGQGTQVTVSS | low polyreactivity |
| QVQLVESGGGLVQAGGSLRLSCAASGRIFRHKAMGWYRQAPGKETELVAAITSRGGTYYADSVKGRFTISRDNAKNTVYLQMNSLKPEDTAFYFCNADQALYSSGNKYDYWGQGTQVTVSS | low polyreactivity |
| QVQLVESGGGLVQAGGSLRLSCAASGRIFRHNAMGWYRQAPGKESELVAAISGGGTTYYADSVKGRFTISRDNAKNTVYLQMNSLKPEDTAVYYCAARRRGSVGVGYAYPYNYWGQGTQVTVSS | high polyreactivity |
| QVQLVESGGGLVQAGGSLRLSCAASGRIFRHNTLGWYRQAPGKEREFVAAISRNGGITYYADSVKGRFTISRDNAKNTVYLQMNSLKPEDTAVYYCNAYTYRQNDYWGQGTQVTVSS | high polyreactivity |
| QVQLVESGGGLVQAGGSLRLSCAASGRIFRHYAMGWYRQAPGKERELVAAINWNGGSTYYADSVKGRFTISRDNAKNTVYLQMNSLKPEDTAVYYCAARYRYVRGMDYWGQGTQVTVSS | high polyreactivity |
| QVQLVESGGGLVQAGGSLRLSCAASGRIFRKNVMGWYRQAPGKERELVAAITTRGGSTYYADSVKGRFTISRDNAKNTVYLQMNSLKPEDTAVYYCATRVQWNSRYDYWGQGTQVTVSS | high polyreactivity |
| QVQLVESGGGLVQAGGSLRLSCAASGRIFRKYAMGWSRQAPGKERELVAAISVGGGSTRYADSVKGRFTISRDNAKNTVYLQMNSLKDEDTAVYYCAADWAYYVASYLYYTFDYWGQGTQVTVSS | low polyreactivity |
| QVQLVESGGGLVQAGGSLRLSCAASGRIFRLYAMGWYRQAPGKERELVAAIRASGGNTYYADSVKGRFTISRDNAKNTVYLQMNSLKPEDSAVYYCAADYWSRYYTVPEWYNYWGQGTQVTVSS | high polyreactivity |
| QVQLVESGGGLVQAGGSLRLSCAASGRIFRLYAMGWYRQAPGKERELVAAISKSGGSTYYADSVKGRFTFSRDNAKNTVYLQMNSLKPEDTAVYYCAADYRTHGGYEGTFDYWGQGTQVTVSS | low polyreactivity |
| QVQLVESGGGLVQAGGSLRLSCAASGRIFRLYAMGWYRQAPGKERELVAAISKSGGSTYYADSVKGRFTISRDTATNTVYLQMNSLKPEDTAVYYCAADYRTHGGYEGTFDYWGQGTQVTVSS | low polyreactivity |
